From the RNAGym collection of RNA variant scans (doi:10.1073/pnas.2313332121) come the findings set out here.

The labels stand for the following.
B1: TPR t1 (parent)
chain: GACCAAUCUGCCCUCAGAGCUCGAGAACAUCUUCGGAUGCAGAGGAGGCAGGCUUCGGUGGCGCGAUAGCGCCAACGUCCUCAACCUCCAAUGCAUCCCACCACAUGAUGAUGCCUGAAGAGCCUUGGUUUUUUG

The variants in this data set derive from B1. Kind of data set: polymerase ribozyme fitness, log enrichment relative to wild type (log ratio); higher = more active; in vitro selection for triplet polymerase activity. A digest of the protocol:
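Mutant libraries for each subunit of a heterodimeric triplet polymerase ribozyme were made by PCR and then transcribed. Each library underwent one round of in vitro selection in triplicate: annealing with a biotinylated primer, the partner subunit and triplets, frozen incubation at −7 °C, gel excision of extended constructs, streptavidin-bead capture and RT-PCR. Input and output libraries were Illumina-sequenced, and only genotypes with ≥10 input reads and ≥1 read per output were kept. Fitness is the logarithm, base 2, of genotype enrichment over wild-type enrichment, computed from inverse-variance-weighted replicate averages.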
As to GACCAAUCUGCCCUCAGAGCUCGAGAACAUCUUCGGAUGCAGAGGAGGCAAGCUUCUGUGGCGCGAUAGCGCCAACGUCCCCAACCUCCAAUGCAUCCCAUCACAUGAUGAUGCCUGAAGAGCCUUGGUUUUUUG, the “polymerase ribozyme fitness (log ratio)” value was -2.52.
The figure for GACCAAUCUGGCCUCAGAGCUCGAGAACAUCUUCGGAUGCAGAGGAGGCAGGCUUGAGUGGCGCGAUAGCGCCAACGUCCUCAACCUCCAAUGCACCCCACCACAUGAUGAUUCCUGAAGAGCCUUGGUUUUUUG is -3.3; for GACCAAUCUGCCCUCAGAGCUCGAGAACAUCUUCGGAUGCAGAGGAGGCAGGCUUCGGUGGCGCGAUAGCACCUACGUCCUCAACCUCCAAUGCAUCCCACCACAUGAUGAUGCCUGAAGAGCCUUGGUUUUUUG it is -3.83; for GACCAAUCUGCGCUCAGAGCUCGAGAACAUCUUCGGAUGCAGAGGAGGCAGGCUUCGGUGUCGCGAUAGCGCCAACGUCCUCAACCUCCAAUGCAUCCCACCACAUGAUGAUGCCUGAAGAGCCUUGGUUUUUUG it is 0.811.
The figure for GACCAAUUUGCCCUCAGAGCUCGAGAACAUCUUCGGAUGCAGAGGAGGCAGGCUUCGGUGGCGCGAUAGCGCCAACGUCCUCAACCUCCAAUGCAUCCCAACACAUGAUGAUGCCUGAAGAGCCUUGGUUUUUUG is -0.038.
Consider GACCAAUAUGCCCUCAGAGCUCGAGUACAUCUUCGGAUGCAGAGGAGGCAGGCUUCGGUGGCGCGAUAGCGCCAACGUCCUCAACCUCGAAUGUAUCCCACCACAUGAUGAUGCCUGAAGAGCGGUUGUUUUUUG, for which the “polymerase ribozyme fitness (log ratio)” value was -3.87.
Turning to GACCAAUCUGCCCUCAGAGCUCGAGAACAUCUUCGGAUGCAGAGGAGGCAGGCGUCGGUGGCGCGAUAGCGCCAACGUCCUCAACCUCCAAUGCAUUCCACCACAUGAUGAUGCCUGAAGAGCCUUGGUUUUUUG, the “polymerase ribozyme fitness (log ratio)” value was -0.558.
Regarding GACCAAUCUGCCCUCAGAGCUCGAGAACAUCUUCGGAUGCAGAGGAGGCAGGCUUGGGUGGCGCGAUAGCGCCAACGACCACAACCUCCAAUGCAUCCCACCACAUGAUGAUCCCUGAAGAGCCUUGGUUUUUUG, the “polymerase ribozyme fitness (log ratio)” value is -3.06.
Turning to GACCAAUCUGCCCUCAGAGCUCGAGAACAUCUUCGGAUGCAGAGGAGGCAGGCUUCGGUGGCGCGAUAGCGCCAACGACCUCAACCUCCAAUGCAUCCCACCACAUGAUGAUACCUGAAGAGCCUUGGUUUUUUG, the “polymerase ribozyme fitness (log ratio)” value is -1.22.
For GACCAAUCUGCCCUCAGAACUCGAGAACAUCUUCGGAUGCAGAGGAGGCAGGCUUCGGUGGCGCGAUAGGGCCAACGUCCUCAACCUCCAAUGCAUCCCACCACAUGAUGAUUCCUGAAGAGCCUUGGUUUUUUG, the “polymerase ribozyme fitness (log ratio)” value is -5.75.
On to GACCAAUCUGCCCUCAGAGCUCGAGAGUAUCUUCGGAUGCAGAGGAGGCAGGCUUCGGUGGCGCGAUAGCGCCAACGUCCUCAACCUCCAAUGCAUCCCACCACAUGAUGAUGCCCGAAGAGCCUUGGUCUUUUG, for which the “polymerase ribozyme fitness (log ratio)” value is -5.27.
On to GACCAAUCUGCCCUCAGAGCUCGAGAACAUCUUCGGAUGCAGAGGAGGCAGGCUUCGGUGUCGCGAUAGCGCCAACGCCCUCUACCUCCAAUGCAUCCCACCACAUGAUGAUGCCUGAAGAGCCUUGGUUUUUUG, for which the “polymerase ribozyme fitness (log ratio)” value was -0.564.
On to GACCAAUCUGCCCUCAGAGCUCGAGAACAUCUUCGGAAGCAGAGGAGGCAGGCUUCGGUGGCGCGAUAGCGCCAACGUCCUAAACCUCCAAUGCAUCCCACCACAUGAUGAUGACUGAACCGCCUUGGUUUCUUG, for which the “polymerase ribozyme fitness (log ratio)” value is -3.34.
On to GACCAAUCUGCCCUCAGAGCUCGAGAACAUCUUCGGAUGCAGAGGAGGCAGGCUUCGGUGGCGCGAUAGCGCCAACGUCCUCAACCUCCAAUGCAUCCCACCACAUGAAGAUGCCGGAAGAGCCUUGGUUUUUUG, for which the “polymerase ribozyme fitness (log ratio)” value is -5.73.
Take GACCAAUGUGCCCUCAGAGCUCGAGAACAUCUUCGGAUGCAGAGGAGGCAGGCUUUGGUGGCGCGAUAGCGCCAACGUCCUCAACCUCCAAUGCAUCCCACCAAAUGAUGAUGCCUGAAGAGCCUUGGGUUUUUG: the “polymerase ribozyme fitness (log ratio)” value was -1.17.
The figure for GACCAAUCUGCCCUCAGAGCUCGAGAACAUCUUUGGAUGCAGAGGAGGCAGGCUUCGGUGGCGCGAUAGCGCUAACGUCCUCAACCUCCAAUGCAUCCCACCACAUGAUGAUGCCUGAAGAGCCUUGGUUUUUUG is -3.35; for GACCAAUCUGCCCUCAGAGCUCGAGAACAUCUUCGGAUGCAGAGGAGGCAGGCUUCGGUGGCGCGAUAGCGCCAACGUCCUCAACCUCGAAUGCAUCCCACCACAUGAUGAUGCCUGAAGAGCCUGGGUUUUUUG it is -3.19.
On to GACCAAUCUGCCCUCAGAGCUCGAGAUCAUCUUCGGAUGGAGAGGAGGCAGGCUUCGGUGGCGCGAUAGCGCCAACGUCCUGAACCUCCAAUGCAUCCCACCACAUGAUGAUGCCUGAAGAGCCUUGGUUUUUUG, for which the “polymerase ribozyme fitness (log ratio)” value is -5.92.
Consider GCCCAAUCUGCCCUCAGAGCUCGAGAACAUCUUCGGAUGCAGAGGAGGCAGGCUUCGGUCGCGCGAUAGCGCCAACGUCCUCAACCUCCAAUGCAUCCCACCACAUGAUGAUGCCUGAAGAGCCUUGGUUUUUUG, for which the “polymerase ribozyme fitness (log ratio)” value was -1.65.
With GACCAAUCUGCCCUCAGAGCUCGAGAACAUCUUCGGAUGCAGAGGAGGCAGGCUUCGGUGGCGCGAUAGCGCCAACGUCCUCAACCUUCAAUGCAUCCCACCACAUGAUGAUGCCAGAAGAGCCUUGGUUUUUUG, the “polymerase ribozyme fitness (log ratio)” value is -3.45.
Consider GACCAAUCUGCCCUCAGAGCUCGAGAACAUCUUCGGAUGCAGAGGAGGCAGGGUUCGGUGGCGUGAUAGCGCCAACGUCCUCAACCUCCAAUGCAUCCCACCACAUGAUGAUGCCUGAAGAGCCUUGGUUUUUUG, for which the “polymerase ribozyme fitness (log ratio)” value is -0.328.
